We go through 1 molecule from US20110145940, “TAL EFFECTOR-MEDIATED DNA MODIFICATION” (published 2011).

This data set addresses AvrBs3 TALEN (BamHI fragment-FokI) (Xanthomonas campestris pv. vesicatoria, UniProt P14727 SEQ:26-1141). Briefly: cell_activity; yeast lacZ SSA assay, 18 bp spacer; optima 15 and 21 bp. The settings on record: tags: FokI catalytic domain fusion, N-terminal NLS; chain copies: 2 (inferred); two sites in inverted orientation around spacer.

B1: AvrBs3 site (dsDNA)
DNA 1: ATATAAACCTAACCATCC
DNA 2: GGATGGTTAGGTTTATAT
Regarding B1, the activity is 15.8 fold over target-only control.
